The results in this text go back to IntAct's records for PubMed 29778605.

The labels stand for the following.
B1: Vacuolar protein sorting-associated protein 33B (Homo sapiens), Q9H267 (parent)
chain: MAFPHRPDAPELPDFSMLKRLARDQLIYLLEQLPGKKDLFIEADLMSPLDRIANVSILKQHEVDKLYKVENKPALSSNEQLCFLVRPRIKNMRYIASLVNADKLAGRTRKYKVIFSPQKFYACEMVLEEEGIYGDVSCDEWAFSLLPLDVDLLSMELPEFFRDYFLEGDQRWINTVAQALHLLSTLYGPFPNCYGIGRCAKMAYELWRNLEEEEDGETKGRRPEIGHIFLLDRDVDFVTALCSQVVYEGLVDDTFRIKCGSVDFGPEVTSSDKSLKVLLNAEDKVFNEIRNEHFSNVFGFLSQKARNLQAQYDRRRGMDIKQMKNFVSQELKGLKQEHRLLSLHIGACESIMKKKTKQDFQELIKTEHALLEGFNIRESTSYIEEHIDRQVSPIESLRLMCLLSITENGLIPKDYRSLKTQYLQSYGPEHLLTFSNLRRAGLLTEQAPGDTLTAVESKVSKLVTDKAAGKITDAFSSLAKRSNFRAISKKLNLIPRVDGEYDLKVPRDMAYVFGGAYVPLSCRIIEQVLERRSWQGLDEVVRLLNCSDFAFTDMTKEDKASSESLRLILVVFLGGCTFSEISALRFLGREKGYRFIFLTTAVTNSARLMEAMSEVKA
partner: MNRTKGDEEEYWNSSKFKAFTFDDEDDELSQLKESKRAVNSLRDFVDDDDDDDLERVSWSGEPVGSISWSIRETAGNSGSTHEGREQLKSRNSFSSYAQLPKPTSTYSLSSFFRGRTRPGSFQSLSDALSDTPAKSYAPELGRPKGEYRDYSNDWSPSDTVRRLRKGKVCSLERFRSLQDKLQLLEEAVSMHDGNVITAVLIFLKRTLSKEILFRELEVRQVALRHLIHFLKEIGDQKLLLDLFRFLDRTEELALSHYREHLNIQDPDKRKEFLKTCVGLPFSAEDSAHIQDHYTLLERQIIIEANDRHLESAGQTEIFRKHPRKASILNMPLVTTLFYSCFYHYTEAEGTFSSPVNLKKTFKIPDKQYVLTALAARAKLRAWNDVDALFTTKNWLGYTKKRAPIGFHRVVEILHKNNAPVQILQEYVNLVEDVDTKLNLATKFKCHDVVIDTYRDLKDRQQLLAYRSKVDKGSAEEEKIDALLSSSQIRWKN
B2: Vacuolar protein sorting-associated protein 33A (Homo sapiens), Q96AX1 (parent)
chain: MAAHLSYGRVNLNVLREAVRRELREFLDKCAGSKAIVWDEYLTGPFGLIAQYSLLKEHEVEKMFTLKGNRLPAADVKNIIFFVRPRLELMDIIAENVLSEDRRGPTRDFHILFVPRRSLLCEQRLKDLGVLGSFIHREEYSLDLIPFDGDLLSMESEGAFKECYLEGDQTSLYHAAKGLMTLQALYGTIPQIFGKGECARQVANMMIRMKREFTGSQNSIFPVFDNLLLLDRNVDLLTPLATQLTYEGLIDEIYGIQNSYVKLPPEKFAPKKQGDGGKDLPTEAKKLQLNSAEELYAEIRDKNFNAVGSVLSKKAKIISAAFEERHNAKTVGEIKQFVSQLPHMQAARGSLANHTSIAELIKDVTTSEDFFDKLTVEQEFMSGIDTDKVNNYIEDCIAQKHSLIKVLRLVCLQSVCNSGLKQKVLDYYKREILQTYGYEHILTLHNLEKAGLLKPQTGGRNNYPTIRKTLRLWMDDVNEQNPTDISYVYSGYAPLSVRLAQLLSRPGWRSIEEVLRILPGPHFEERQPLPTGLQKKRQPGENRVTLIFFLGGVTFAEIAALRFLSQLEDGGTEYVIATTKLMNGTSWIEALMEKPF
partner: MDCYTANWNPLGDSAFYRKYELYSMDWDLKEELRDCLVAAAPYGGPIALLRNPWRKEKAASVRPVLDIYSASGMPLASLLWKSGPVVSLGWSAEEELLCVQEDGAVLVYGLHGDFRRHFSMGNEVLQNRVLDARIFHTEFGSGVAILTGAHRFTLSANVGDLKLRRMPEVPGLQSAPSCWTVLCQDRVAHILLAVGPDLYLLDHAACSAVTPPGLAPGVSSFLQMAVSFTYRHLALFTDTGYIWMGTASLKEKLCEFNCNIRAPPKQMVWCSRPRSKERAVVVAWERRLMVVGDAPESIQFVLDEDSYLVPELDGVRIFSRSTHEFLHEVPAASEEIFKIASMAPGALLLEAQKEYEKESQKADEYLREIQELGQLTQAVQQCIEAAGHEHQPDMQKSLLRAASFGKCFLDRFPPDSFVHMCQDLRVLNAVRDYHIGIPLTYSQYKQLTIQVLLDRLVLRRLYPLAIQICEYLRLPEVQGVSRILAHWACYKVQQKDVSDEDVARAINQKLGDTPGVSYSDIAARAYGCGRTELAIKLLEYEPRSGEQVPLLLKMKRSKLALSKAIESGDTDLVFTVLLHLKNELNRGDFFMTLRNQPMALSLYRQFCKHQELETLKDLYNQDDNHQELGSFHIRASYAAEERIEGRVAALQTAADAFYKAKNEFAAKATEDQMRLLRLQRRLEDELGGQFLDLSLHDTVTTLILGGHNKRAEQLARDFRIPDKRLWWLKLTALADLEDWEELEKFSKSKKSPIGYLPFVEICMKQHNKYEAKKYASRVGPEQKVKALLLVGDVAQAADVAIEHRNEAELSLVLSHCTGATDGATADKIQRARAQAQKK

In one assay the parent is B1. The note with it: with spe39_human VIPAS39, Q9H9C1.
For the variant P428D;L431K, the “effect of a mutation on the interaction” value is listed as “decreasing interaction strength”.

On to K419D;L431K, for which the “effect of a mutation on the interaction” value is “disrupting interaction strength”.

A further assay covers variants of B2. The note with it: with vps16_human VPS16, Q9H269.
Consider MAAHLSYGRVNLNVLREAVRRELREFLDKCAGSKAIVWDEYLTGPFGLIAQYSLLKEHEVEKMFTLKGNRLPAADVKNIIFFVRPRLELMDIIAENVLSEDRRGPTRDFHILFVPRRSLLCEQRLKDLGVLGSFIHREEYSLDLIPFDGDLLSMESEGAFKECYLEGDQTSLYHAAKGLMTLQALYGTIPQIFGKGECARQVANMMIRMKREFTGSQNSIFPVFDNLLLLDRNVDLLTPLATQLTYEGLIDEIYGIQNSYVKLPPEKFAPKKQGDGGKDLPTEAKKLQLNSAEELYAEIRDKNFNAVGSVLSKKAKIISAAFEERHNAKTVGEIKQFVSQLPHMQAARGSLANHTSIAELIKDVTTSEDFFDKLTVEQEFMSGIDTDKVNNYIEDCIAQKHSLIKVLRLVCLQSVCNSGLKQKVLDYYKREILQTYGDEHKLTLHNLEKAGLLKPQTGGRNNYPTIRKTLRLWMDDVNEQNPTDISYVYSGYAPLSVRLAQLLSRPGWRSIEEVLRILPGPHFEERQPLPTGLQKKRQPGENRVTLIFFLGGVTFAEIAALRFLSQLEDGGTEYVIATTKLMNGTSWIEALMEKPF [Y438D;I441K], for which the “effect of a mutation on the interaction” value was “disrupting interaction strength”.
